Patent CN101300273A

Tests used:
[1] = biological target: 人肿瘤细胞上的TR-2 (human) (UniProt O14763); test: cell-based assay, 10 μg/ml M412, anti-mouse IgG Fc-HRP, isotype control subtracted; melanoma line RPMI 7951
[2] = biological target: 人肿瘤细胞上的TR-2 (human) (UniProt O14763); test: cell-based assay, 10 μg/ml M412, anti-mouse IgG Fc-HRP, isotype control subtracted; colon cancer line KM-12
[3] = biological target: 人肿瘤细胞上的TR-2 (human) (UniProt O14763); test: cell-based assay, 10 μg/ml M412, anti-mouse IgG Fc-HRP, isotype control subtracted; colon cancer line HCC-2998
[4] = biological target: 人肿瘤细胞上的TR-2 (human) (UniProt O14763); test: cell-based assay, 10 μg/ml M412, anti-mouse IgG Fc-HRP, isotype control subtracted; kidney cancer line Caki-2
[5] = biological target: 人肿瘤细胞上的TR-2 (human) (UniProt O14763); test: cell-based assay, 10 μg/ml M412, anti-mouse IgG Fc-HRP, isotype control subtracted; prostate cancer line 22Rv1
[6] = biological target: 人肿瘤细胞上的TR-2 (human) (UniProt O14763); test: cell-based assay, 10 μg/ml M412, anti-mouse IgG Fc-HRP, isotype control subtracted; prostate cancer line DU 145
[7] = biological target: 人肿瘤细胞上的TR-2 (human) (UniProt O14763); test: cell-based assay, 10 μg/ml M412, anti-mouse IgG Fc-HRP, isotype control subtracted; line A 673 (listed under leukemia)
[8] = biological target: 人肿瘤细胞上的TR-2 (human) (UniProt O14763); test: cell-based assay, 10 μg/ml M412, anti-mouse IgG Fc-HRP, isotype control subtracted; ovarian cancer line IGROV1
[9] = biological target: 人肿瘤细胞上的TR-2 (human) (UniProt O14763); test: cell-based assay, 10 μg/ml M412, anti-mouse IgG Fc-HRP, isotype control subtracted; CNS cancer line U251
[10] = biological target: 人肿瘤细胞上的TR-2 (human) (UniProt O14763); test: cell-based assay, 10 μg/ml M412, anti-mouse IgG Fc-HRP, isotype control subtracted; non-small cell lung cancer line NCI-H460
[11] = biological target: 人肿瘤细胞上的TR-2 (human) (UniProt O14763); test: cell-based assay, 10 μg/ml M412, anti-mouse IgG Fc-HRP, isotype control subtracted; melanoma line LOX IMVI
[12] = biological target: 人肿瘤细胞上的TR-2 (human) (UniProt O14763); test: cell-based assay, 10 μg/ml M412, anti-mouse IgG Fc-HRP, isotype control subtracted; colon cancer line HCT-116
[13] = biological target: 人肿瘤细胞上的TR-2 (human) (UniProt O14763); test: cell-based assay, 10 μg/ml M412, anti-mouse IgG Fc-HRP, isotype control subtracted; kidney cancer line Caki-1
[14] = biological target: 人肿瘤细胞上的TR-2 (human) (UniProt O14763); test: cell-based assay, 10 μg/ml M412, anti-mouse IgG Fc-HRP, isotype control subtracted; colon cancer line SW-707
[15] = biological target: 人肿瘤细胞上的TR-2 (human) (UniProt O14763); test: cell-based assay, 10 μg/ml M412, anti-mouse IgG Fc-HRP, isotype control subtracted; non-small cell lung cancer line HOP-62 (second mention)
[16] = biological target: 人肿瘤细胞上的TR-2 (human) (UniProt O14763); test: cell-based assay, 10 μg/ml M412, anti-mouse IgG Fc-HRP, isotype control subtracted; kidney cancer line UO-31
[17] = biological target: 人肿瘤细胞上的TR-2 (human) (UniProt O14763); test: cell-based assay, 10 μg/ml M412, anti-mouse IgG Fc-HRP, isotype control subtracted; non-small cell lung cancer line HOP-62 (first mention)
[18] = biological target: 人肿瘤细胞上的TR-2 (human) (UniProt O14763); test: cell-based assay, 10 μg/ml M412, anti-mouse IgG Fc-HRP, isotype control subtracted; prostate cancer line LNCaP
[19] = biological target: 人肿瘤细胞上的TR-2 (human) (UniProt O14763); test: cell-based assay, 10 μg/ml M412, anti-mouse IgG Fc-HRP, isotype control subtracted; lung cancer line A549
[20] = biological target: 人肿瘤细胞上的TR-2 (human) (UniProt O14763); test: cell-based assay, 10 μg/ml M412, anti-mouse IgG Fc-HRP, isotype control subtracted; liver cancer line NCI-SNU-1
[21] = biological target: 人肿瘤细胞上的TR-2 (human) (UniProt O14763); test: cell-based assay, 10 μg/ml M412, anti-mouse IgG Fc-HRP, isotype control subtracted; breast cancer line MDA-MB-231
[22] = biological target: 人肿瘤细胞上的TR-2 (human) (UniProt O14763); test: cell-based or functional assay
[23] = biological target: 人肿瘤细胞上的TR-2 (human) (UniProt O14763); test: cell-based assay, 10 μg/ml M412, anti-mouse IgG Fc-HRP, isotype control subtracted; colon cancer line SW-948
[24] = biological target: 人肿瘤细胞上的TR-2 (human) (UniProt O14763); test: cell-based assay, 10 μg/ml M412, anti-mouse IgG Fc-HRP, isotype control subtracted; colon cancer line HT-29
[25] = biological target: 人肿瘤细胞上的TR-2 (human) (UniProt O14763); test: cell-based assay, 10 μg/ml M412, anti-mouse IgG Fc-HRP, isotype control subtracted; breast cancer line T-47D
[26] = biological target: 人肿瘤细胞上的TR-2 (human) (UniProt O14763); test: cell-based assay, 10 μg/ml M412, anti-mouse IgG Fc-HRP, isotype control subtracted; CNS cancer line SF-295
[27] = biological target: 人肿瘤细胞上的TR-2 (human) (UniProt O14763); test: cell-based assay, 10 μg/ml M412, anti-mouse IgG Fc-HRP, isotype control subtracted; non-small cell lung cancer line NCI-H2126
[28] = biological target: 人肿瘤细胞上的TR-2 (human) (UniProt O14763); test: cell-based assay, 10 μg/ml M412, anti-mouse IgG Fc-HRP, isotype control subtracted; breast cancer line HS 578.T
[29] = biological target: 人肿瘤细胞上的TR-2 (human) (UniProt O14763); test: cell-based assay, 10 μg/ml M412, anti-mouse IgG Fc-HRP, isotype control subtracted; melanoma line UACC-62
[30] = biological target: 人肿瘤细胞上的TR-2 (human) (UniProt O14763); test: cell-based assay, 10 μg/ml M412, anti-mouse IgG Fc-HRP, isotype control subtracted; kidney cancer line SN12C

UniProt O14763, sequence (O14763 56-440): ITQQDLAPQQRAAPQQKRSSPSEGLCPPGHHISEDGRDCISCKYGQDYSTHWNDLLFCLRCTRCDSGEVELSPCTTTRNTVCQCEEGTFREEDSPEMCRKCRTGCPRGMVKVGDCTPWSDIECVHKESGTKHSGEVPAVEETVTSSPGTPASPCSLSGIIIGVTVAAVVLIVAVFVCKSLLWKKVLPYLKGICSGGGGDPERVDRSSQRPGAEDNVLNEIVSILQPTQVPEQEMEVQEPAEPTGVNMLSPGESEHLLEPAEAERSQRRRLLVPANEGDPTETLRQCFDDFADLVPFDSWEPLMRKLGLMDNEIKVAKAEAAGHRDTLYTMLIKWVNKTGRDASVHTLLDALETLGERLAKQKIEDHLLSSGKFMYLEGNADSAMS

B1: 小鼠抗TR-2抗体M412 (antibody, mouse IgG1, V domains shown)
VH: KVQLQQSGTELVKPGASVKLSCKASGYTFTEYIIHWVKQRSGQGLEWIGWFYPGSGYIKYNEKFKDKATMTADKSSSTVYMELSRLTSEDSAVYFCTRHEEDGYYAAYWGQGTLVTVSA
VL: DIVMTQSHKFMSTSVGDRVSITCKASQDVSSAVAWYQQKPGQSPKLLIYWASTRHTGVPDRFTGSGSGTDYTLTISSVQAEDLALYYCQQHYSTPYTFGGGTKLEIKR
Which OD450nm [1] does the source give for B1 here?
The OD450nm was 0.322 OD450.

What about the OD450nm [2] of the same binder?
The OD450nm was 0.77 OD450.

And the OD450nm [3]?
Its OD450nm is 0.635 OD450.

And the OD450nm [4]?
The OD450nm was 0.443 OD450.

What about the OD450nm [5] of the same binder?
Its OD450nm is 0.301 OD450.

And the OD450nm [6]?
The OD450nm was 0.372 OD450.

What about the OD450nm [7] of the same binder?
Its OD450nm is 0.347 OD450.

And the OD450nm [8]?
Its OD450nm is 0.312 OD450.

What about the OD450nm [9] of the same binder?
The OD450nm was 0.323 OD450.

And the OD450nm [10]?
The OD450nm was 0.326 OD450.

And the OD450nm [11]?
The OD450nm was 0.573 OD450.

What about the OD450nm [12] of the same binder?
The OD450nm was 0.41 OD450.

And the OD450nm [13]?
Its OD450nm is 0.93 OD450.

And the OD450nm [14]?
The OD450nm was 0.323 OD450.

And the OD450nm [15]?
Its OD450nm is 0.47 OD450.

What about the OD450nm [16] of the same binder?
Its OD450nm is 0.331 OD450.

What about the OD450nm [17] of the same binder?
Its OD450nm is 0.313 OD450.

And the OD450nm [18]?
The OD450nm was 0.63 OD450.

And the OD450nm [19]?
The OD450nm was 0.381 OD450.

And the OD450nm [20]?
Its OD450nm is 0.354 OD450.

What about the OD450nm [21] of the same binder?
Its OD450nm is 0.408 OD450.

And the ED50 (细胞存活减少50%, 3H-胸苷掺入), COLO 205细胞 [22]?
Its ED50 (细胞存活减少50%, 3H-胸苷掺入), COLO 205细胞 is 1.85 µg/mL.

And the ED50 (细胞存活减少50%, 3H-胸苷掺入), MDA-231细胞 [22]?
The ED50 (细胞存活减少50%, 3H-胸苷掺入), MDA-231细胞 was 0.6 µg/mL.

What about the ED50 (细胞存活减少50%, 3H-胸苷掺入), WM35细胞 [22] of the same binder?
The ED50 (细胞存活减少50%, 3H-胸苷掺入), WM35细胞 was 1.85 µg/mL.

And the ED50 (细胞存活减少50%, 3H-胸苷掺入), WM793细胞 [22]?
The ED50 (细胞存活减少50%, 3H-胸苷掺入), WM793细胞 was 1.85 µg/mL.

What about the OD450nm [23] of the same binder?
The OD450nm was 0.423 OD450.

And the OD450nm [24]?
Its OD450nm is 0.869 OD450.

What about the OD450nm [25] of the same binder?
The OD450nm was 0.366 OD450.

And the OD450nm [26]?
The OD450nm was 0.354 OD450.

What about the OD450nm [27] of the same binder?
The OD450nm was 0.501 OD450.

And the OD450nm [28]?
The OD450nm was 0.403 OD450.

And the OD450nm [29]?
Its OD450nm is 0.319 OD450.

And the OD450nm [30]?
Its OD450nm is 0.313 OD450.
